This is an account of results in US20130022590, “Compositions Comprising Zinc Finger Domains and Uses Therefor” (published 2013).

One series has as its target ZRANB2-F12 delta47-61 (Homo sapiens, UniProt O95218 O95218:1-46+62-95, del47-61). Description: FP; about 30-51e6 stated; order comparable to wild-type F12. The conditions noted are these: label: 5'-fluorescein. The procedure: (§1) Fluorescence Anisotropy titrations e.g., as shown in FIGS. 1D-F, 8 and 35, were carried out using standard protocols. In brief, 5′-Fluorescein-labeled RNA oligonucleotides were quantified by A₂₆₀, correcting for fluorescein absorbance by using A₄₉₃. For single-site experiments, the sequence […] (SEQ ID NO: 28), or single base mutants thereof, was used. For double-site experiments, two AGGUAA sites were separated by different length sequences as indicated, and the total oligonucleotide lengths were kept constant by the symmetrical addition of adenines to each end. […] Protein was titrated into this starting solution and anisotropy values measured on a Cary Eclipse fluorescence spectrophotometer fitted with manual polarizer and long-pass filters set to 475 and 515 nm for excitation and emission, respectively. […] Association constants were determined by nonlinear least squares regression analysis using a 1:1 binding model.
(§2) The inventors have employed deletion mutagenesis to thereby identify a minimal inter-finger linker region of ZRANB2 required for specific ssRNA-binding. […] The deletion constructs were then tested for an ability to bind the ssRNA substrate 5′-GGUNXGGU-3′ comprising a repeat of the GGU core sequence using fluorescence anisotropy titration.

In series [1] the target is T1, ZRANB2-F12 (Homo sapiens, UniProt O95218 O95218:1-95). Description: FP; range stated for deletion construct and comparable wild type. The following applies: tags: GST removed for FA, gel shift and SPR; label: 5'-fluorescein. The procedure: as §1, §2
A general note: A gel shift assay detects complexes by their altered migration in electrophoresis.

Series [2] concerns the target T2, ZRANB2-F12 delta45-64 (Homo sapiens, UniProt O95218 O95218:1-44+65-95, del45-64). Kind of series: FP; lower affinity than F122. The conditions noted are these: label: 5'-fluorescein. The procedure: Fluorescence Anisotropy titrations e.g., as shown in FIGS. 1D-F, 8 and 35, were carried out using standard protocols. In brief, 5′-Fluorescein-labeled RNA oligonucleotides were quantified by A₂₆₀, correcting for fluorescein absorbance by using A₄₉₃. For single-site experiments, the sequence […] (SEQ ID NO: 28), or single base mutants thereof, was used. For double-site experiments, two AGGUAA sites were separated by different length sequences as indicated, and the total oligonucleotide lengths were kept constant by the symmetrical addition of adenines to each end. The anisotropy titrations were performed with a starting RNA concentration of 50 nM in a buffer comprising either 10 mM Tris (pH 8.0), 50 mM KCl, 5 mM MgCl₂, 0.05 mg/mL heparin, and 1 mM DTT (for GST fusion constructs) or 10 mM Mops (pH 7.3), 50 mM NaCl, 0.05 mg/mL heparin, and 1 mM DTT (for ZRANB2-F12). RNasin (Promega) was also added to the protein solution to a concentration of 2 units/μL. Protein was titrated into this starting solution and anisotropy values measured on a Cary Eclipse fluorescence spectrophotometer fitted with manual polarizer and long-pass filters set to 475 and 515 nm for excitation and emission, respectively. […] Association constants were determined by nonlinear least squares regression analysis using a 1:1 binding model. […]

Series [3] addresses T2, ZRANB2-F12 delta45-64. Description: FP. The conditions noted are these: label: 5'-fluorescein.
Another series has as its target EKLF-F123 (UniProt P46099 P46099:275-357). Description: FP; higher affinity than poly(C) or AGGUAA; also HSQC titration. The following applies: tags: zinc fingers 1-3.
In another series the target is T3, ZRANB2-F2 R82N (Homo sapiens, UniProt O95218 O95218:65-95, R82N).
T3 chain: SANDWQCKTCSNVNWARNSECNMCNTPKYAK
Kind of series: FP; also about 2-fold increase versus WT F2. The following applies: label: 5'-fluorescein. The procedure:
The anisotropy titrations were performed with a starting RNA concentration of 50 nM in a buffer comprising either 10 mM Tris (pH 8.0), 50 mM KCl, 5 mM MgCl₂, 0.05 mg/mL heparin, and 1 mM DTT (for GST fusion constructs) or 10 mM Mops (pH 7.3), 50 mM NaCl, 0.05 mg/mL heparin, and 1 mM DTT (for ZRANB2-F12). RNasin (Promega) was also added to the protein solution to a concentration of 2 units/μL. Protein was titrated into this starting solution and anisotropy values measured on a Cary Eclipse fluorescence spectrophotometer fitted with manual polarizer and long-pass filters set to 475 and 515 nm for excitation and emission, respectively. Excitation and emission wavelengths were set at 495 and 520 nm, respectively (10-nm slits) and the temperature was maintained at 25° C. by using a block temperature controller. Association constants were determined by nonlinear least squares regression analysis using a 1:1 binding model. […]

Series [4] addresses T1, ZRANB2-F12. Description: FP; affinity increases with spacing; value in figure only. The following applies: tags: GST removed for FA, gel shift and SPR; label: 5'-fluorescein. The protocol:
as §1
The importance of the spacing between AGGUAA motifs was assessed by measuring binding of F12 to double sites that were separated by −1 to 8 nt (where −1 denotes the sequence […] SEQ ID NO: 33; FIG. 1E, lanes 5-10).

Series [5] addresses EWS RanBP2-type zinc finger (Homo sapiens, UniProt Q01844 Q01844:518-549). Kind of series: FP; value in figure only. The following applies: tags: expressed as GST fusion. The protocol:
Fluorescence Anisotropy titrations e.g., as shown in FIGS. 1D-F, 8 and 35, were carried out using standard protocols. In brief, 5′-Fluorescein-labeled RNA oligonucleotides were quantified by A₂₆₀, correcting for fluorescein absorbance by using A₄₉₃. For single-site experiments, the sequence […] (SEQ ID NO: 28), or single base mutants thereof, was used. For double-site experiments, two AGGUAA sites were separated by different length sequences as indicated, and the total oligonucleotide lengths were kept constant by the symmetrical addition of adenines to each end. The anisotropy titrations were performed with a starting RNA concentration of 50 nM in a buffer comprising either 10 mM Tris (pH 8.0), 50 mM KCl, 5 mM MgCl₂, 0.05 mg/mL heparin, and 1 mM DTT (for GST fusion constructs) or 10 mM Mops (pH 7.3), 50 mM NaCl, 0.05 mg/mL heparin, and 1 mM DTT (for ZRANB2-F12). RNasin (Promega) was also added to the protein solution to a concentration of 2 units/μL. Protein was titrated into this starting solution and anisotropy values measured on a Cary Eclipse fluorescence spectrophotometer fitted with manual polarizer and long-pass filters set to 475 and 515 nm for excitation and emission, respectively. […] Association constants were determined by nonlinear least squares regression analysis using a 1:1 binding model.

A further series addresses T4, ZRANB2-F2 (untagged) (Homo sapiens, UniProt O95218 O95218:65-95).
T4 chain: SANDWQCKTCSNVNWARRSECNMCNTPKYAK
Description: structure; crystal structure 1.4 A; W79 stacks between G2 and G3.

EWS RanBP2-type zinc finger, sequence (Q01844 518-549, one chain of several): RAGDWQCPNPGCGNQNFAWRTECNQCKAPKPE
EKLF-F123, sequence (P46099 275-357, one chain of several): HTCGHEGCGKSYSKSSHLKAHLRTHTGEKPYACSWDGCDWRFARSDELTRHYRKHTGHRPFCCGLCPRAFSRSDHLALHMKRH

B1: GGUGGU 13-mer (ssRNA)
RNA: AAAGGUGGUAAAA
Consider B1, for which the binding result with ZRANB2-F12 delta47-61, in the series with ZRANB2-F12 [1] and in the series with ZRANB2-F12 delta45-64 [2] was “binds” each time.

B2: GGUGGUGGU 13-mer (ssRNA)
RNA: AAGGUGGUGGUAA
B2: the Ka in the series with ZRANB2-F12 delta45-64 [3] was ~2.5e+07 M⁻¹.

B3: U9 (ssRNA)
RNA: UUUUUUUUU
On to B3, for which the binding result with EKLF-F123 is recorded as “binds”.

B4: AGUUAA (3U) (ssRNA)
RNA: AGUUAA
For B4, the binding signal with ZRANB2-F2 R82N was ~2 fold higher than AGGUAA.

B5: double site spacing -1 (ssRNA)
RNA: AGGUAAGGUAA
B5: the binding result with ZRANB2-F12 [4] is reported as “binds”.

B6: AGGUAA hexamer (ssRNA)
RNA: AGGUAA
As to B6, the binding result (in series [5]; with ZRANB2-F2 (untagged)) was “binds” throughout.
